T1: CXCL16 (UniProt Q9H2A7 Q9H2A7:30-118)
T1 sequence: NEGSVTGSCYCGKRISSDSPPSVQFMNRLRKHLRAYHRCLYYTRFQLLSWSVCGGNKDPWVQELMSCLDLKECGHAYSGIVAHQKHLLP

B1: 5',3' 10T FKN-S2 Aptamer (ssDNA)
DNA: TTTTTTTTTTGGGGTGGGTGGGGGGCACGTGTGGGGGCGGCCAGGGTGCTTTTTTTTTTT

These binders were tested against T1, CXCL16 (assay: filter; 0.2 nM protein; PBS pH 7.4, room temp). Details: tags: PeproTech 300-55; label: 5' 32P; parallel G-quartet and B-form features by CD.
Protocol: (§1) FKN-S2 was labeled with γ-³²P ATP using a T4 polynucleotide kinase as described in the FKN-S2 Aptamer Homologous Competitive Binding Assay section. Unlabeled FKN-S2 aptamer and 10⁶ counts per minute of radiolabeled FKN-S2 aptamer were mixed in binding buffer (PBS with 50 μg/mL BSA and 2.5 μg/mL Poly (dA:dT); pH 7.4) and the aptamer was denatured at 95° C. for 5 minutes followed by snap cooling in ice water for 5 minutes. The aptamer was then serial diluted in binding buffer and the dilutions added to full length fractalkine, heat-denatured fractalkine and chemokines CCL8 (PeproTech Catalog Number 300-15) and CXCL16 (PeproTech Catalog Number 300-55). All proteins were at a concentration of 0.2 nM. Fractalkine was denatured by heating to 95° C. for 10 minutes followed by incubation on ice until use. The aptamer and protein were incubated for 1 hour at room temperature. Bound aptamer was collected by filtering the samples thorough at nitrocellulose membrane and signal captured with a phosphor film and imaged. The background was measured from wells containing an identical concentration of BSA without the protein. Binding was quantified using ImageJ. […] The binding that was seen may be due to incomplete denaturing or refolding of fractalkine during the experiment.
GGGGTGGGTGGGGGGCACGTGTGGGGGCGGCCAGGGTGCT (ssDNA) [FKN-S2]: no binding.

These binders were tested against CCL8 (UniProt P80075 P80075:24-99) (assay: filter; 0.2 nM protein; PBS pH 7.4, room temp). Details: tags: PeproTech 300-15; label: 5' 32P; parallel G-quartet and B-form features by CD.
Chain of CCL8 (P80075 24-99, one chain of several): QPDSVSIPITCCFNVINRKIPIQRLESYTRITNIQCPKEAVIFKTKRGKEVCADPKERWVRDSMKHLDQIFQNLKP
Protocol: as §1
GGGGTGGGTGGGGGGCACGTGTGGGGGCGGCCAGGGTGCT (ssDNA) [FKN-S2]: no binding.

What follows are binders tested against T2, fractalkine (CX3CL1) (Homo sapiens, UniProt P78423 P78423:25-339) (assay: filter; 1-10 nM aptamer; PBS pH 7.4, BSA, poly dA:dT). Details: tags: C-terminal polyhistidine; chemokine domain + mucin-like stalk; R&D Systems 365-FR-025; label: 32P.
T2 sequence (P78423 25-339, one chain of several): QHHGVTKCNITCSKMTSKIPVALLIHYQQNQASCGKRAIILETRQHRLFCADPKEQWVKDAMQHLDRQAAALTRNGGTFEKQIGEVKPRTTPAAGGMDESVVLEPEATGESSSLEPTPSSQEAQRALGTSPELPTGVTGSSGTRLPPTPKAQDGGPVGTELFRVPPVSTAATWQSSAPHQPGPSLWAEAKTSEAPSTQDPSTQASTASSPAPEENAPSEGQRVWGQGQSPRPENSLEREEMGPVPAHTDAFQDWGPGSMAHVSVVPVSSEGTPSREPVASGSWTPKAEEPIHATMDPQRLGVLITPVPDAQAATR
Protocol: Anti-fractalkine Antibody Blocking Assay. Unlabeled FKN-S2 and scrambled FKN-S2 aptamer (sequence 5′-[…] […], SEQ ID NO:7) were diluted to 10 nM in binding buffer (PBS with 50 μg/mL BSA and 2.5 μg/mL Poly (dA:dT); pH 7.4). Approximately 75,000 cpm/well of radio-labeled aptamer was added and the samples were diluted to 5 and 1 nM. Each dilution was heat denatured and snap cooled. Full length fractalkine was diluted to 0.25 nM and approximately 100 nM of anti-chemokine domain antibody (FKN Ab) was added and allowed to bind for 30 minutes at room temperature. The aptamer was added to the protein solution and incubated at room temperature for 30 minutes. Bound aptamer was collected by filtering the samples thorough at nitrocellulose membrane and signal captured with a phosphor film and imaged. The background binding signal was removed from the FKN and FKN Ab+FKN samples by subtracting the signal from a well containing an identical concentration of BSA without FKN or FKN Ab. Binding was quantified using ImageJ.
GTTGGGATGAGGGTGGGCGGGCGCGGCGGCTGGGGGTCGG (ssDNA) [scrambled FKN-S2]: no binding.

Each binder was assayed against T2, fractalkine (CX3CL1) (assay: competition; vs radiolabeled FKN-S2, 0.1 nM FKN, PBS). Details: tags: C-terminal polyhistidine; chemokine domain + mucin-like stalk; R&D Systems 365-FR-025.
Protocol: (§2) IC₅₀ Binding Assay. FKN-S2 aptamer was labeled on the 5′ end with a radioactive phosphorous (³²P) using a T4 kinase. Unlabeled aptamer amphiphile was serially diluted in binding buffer composed of PBS with BSA, Poly(dA:dT) and radio-labeled FKN-S2 (generally less than 0.05 nM; ≈20,000 count per minute per well) and unlabeled FKN-S2 (1 nM). This ensured each aptamer dilution contained an identical concentration of FKN-S2. Fractalkine (0.1 nM) or BSA was added to each dilution and the aptamer was allowed to bind for 1 hour at room temperature. Each solution was then filtered though a nitrocellulose membrane where the fractalkine:aptamer complex was captured and non-bound aptamer was removed by washing the membrane three times with PBS. The membrane was then exposed to a phosphor film overnight and imaged. The binding was quantified using imageJ and the data fit to a binding equation to determine the IC₅₀.
Effect of the Spacer on Binding Affinity. […] Radiolabeled FKN-S2 aptamer and unlabeled aptamer-amphiphile were incubated with fractalkine for 1 hour and the aptamer:fractalkine complex collected by filtration through a nitrocellulose membrane. The concentration at which 50% of the aptamer is displaced by the unlabeled competitor is the IC₅₀ value.
GGGGTGGGTGGGGGGCACGTGTGGGGGCGGCCAGGGTGCTTTTTT (ssDNA, 3' C16 dialkyl tail) [3' 5T FKN-S2 Amphiphile] gave an IC50 of 37.6 nM. GGGGTGGGTGGGGGGCACGTGTGGGGGCGGCCAGGGTGCTTTTTTTTTTT (ssDNA, 3' C16 dialkyl tail) [3' 10T FKN-S2 Amphiphile] gave an IC50 of 21.8 nM. For GGGGTGGGTGGGGGGCACGTGTGGGGGCGGCCAGGGTGCTAAAAAAAAAA (ssDNA, 3' C16 dialkyl tail) [3' 10A FKN-S2 Amphiphile], the IC50 was 24.8 nM. Binder TTTTTTTTTTGGGGTGGGTGGGGGGCACGTGTGGGGGCGGCCAGGGTGCT (ssDNA, 5' C16 dialkyl tail) [5' 10T FKN-S2 Amphiphile] has an IC50 of 55.1 nM. Binder GGGGTGGGTGGGGGGCACGTGTGGGGGCGGCCAGGGTGCT (ssDNA, 3' C6 amino-linked C16 dialkyl tail) [3' No Spacer FKN-S2 Amphiphile] has an IC50 of 65.7 nM. Work on GGGGTGGGTGGGGGGCACGTGTGGGGGCGGCCAGGGTGCT (ssDNA, 5' C6 amino-linked C16 dialkyl tail) [5' No Spacer FKN-S2 Amphiphile] yielded an IC50 of 81.6 nM. GGGGTGGGTGGGGGGCACGTGTGGGGGCGGCCAGGGTGCT (ssDNA, 3' PEG24 spacer + C16 dialkyl tail) [3' PEG24 FKN-S2 Amphiphile] was tested, and the IC50 was 49.6 nM. GGGGTGGGTGGGGGGCACGTGTGGGGGCGGCCAGGGTGCT (ssDNA, 3' PEG4 spacer + C16 dialkyl tail) [3' PEG4 FKN-S2 Amphiphile] gave an IC50 of 68.6 nM. GGGGTGGGTGGGGGGCACGTGTGGGGGCGGCCAGGGTGCT (ssDNA, 3' C24 spacer + C16 dialkyl tail) [3' C24 FKN-S2 Amphiphile] showed an IC50 of 73.5 nM. GGGGTGGGTGGGGGGCACGTGTGGGGGCGGCCAGGGTGCT (ssDNA, 3' C12 spacer + C16 dialkyl tail) [3' C12 FKN-S2 Amphiphile] showed an IC50 of 75.6 nM. Binder GGGGTGGGTGGGGGGCACGTGTGGGGGCGGCCAGGGTGCT (ssDNA, 3' PEG8 spacer + C16 dialkyl tail) [3' PEG8 FKN-S2 Amphiphile] has an IC50 of 47.5 nM.

The binders below were run against T2, fractalkine (CX3CL1) (assay: competition; vs radiolabeled FKN-S2). Details: tags: C-terminal polyhistidine; chemokine domain + mucin-like stalk; R&D Systems 365-FR-025.
Protocol: FKN-S2 contains 40 nucleotides and we investigated if truncation of the aptamer would result in sequences with similar affinity to fractalkine but with fewer nucleotides. Three truncated versions of the FKN-S2 aptamer were synthesized with five nucleotides removed from the 5′ end (FKN-S2a), five from the 3′ end (FKN-S2b) and five from each end (FKN-S2c). Additionally, a random 40-mer (5′-[…] (SEQ ID NO:4)) was used as a control. The relative affinities of the truncated aptamers were tested using a heterogeneous competition assay with radiolabeled full length FKN-S2 (FIG. 4). IC₅₀ values (the concentration of 50% reduction in binding) were determined by non-linear regression fitting of the data to the binding equation given in herein and the values are shown in Table 1.
Truncated FKN-S2 Aptamer Competitive Binding Assay. […] 1 nM of unlabeled FKN-S2 and 5,000 cpm/μL (counts per minute/μL) of radio-labeled full length FKN-S2 were heat denatured and snap cooled before addition to either fractalkine or a BSA control at a concentration of 0.1 nM and incubated for 1 hour at room temperature. The solutions were filtered through a nitrocellulose membrane and exposed to a storage phosphor film overnight and imaged. The binding was quantified using ImageJ and the Dot Blot Analyzer plug-in. Data was fit using the non-linear regression program Origin 8 to the equation
For GGGTGGGGGGCACGTGTGGGGGCGGCCAGG (ssDNA) [FKN-S2c], the IC50 was > 100000 nM. CTATCGGCGACATGAACTTTGGCAAGGGCATCTGGTCCAT (ssDNA) [random 40-mer] was tested, and the IC50 was > 100000 nM. GGGGTGGGTGGGGGGCACGTGTGGGGGCGGCCAGG (ssDNA) [FKN-S2b] was tested, and the IC50 was 5410 nM.

These binders were tested against T2, fractalkine (CX3CL1) (assay: competition; vs radiolabeled FKN-S2, filter binding, PBS pH 7.4; Table 2 gives 8.6±0.3 nM (n=9)). Details: tags: C-terminal polyhistidine; chemokine domain + mucin-like stalk; R&D Systems 365-FR-025; label: 5' 32P; parallel G-quartet and B-form features by CD.
With GGGGTGGGTGGGGGGCACGTGTGGGGGCGGCCAGGGTGCT (ssDNA) [FKN-S2] the IC50 was 9.5 nM.

Target: T2, fractalkine (CX3CL1)
Test: competition; vs radiolabeled FKN-S2
Details: tags: C-terminal polyhistidine; chemokine domain + mucin-like stalk; R&D Systems 365-FR-025
Remark: another data set of the same source
Protocol: as §2
We hypothesized that the improvement in affinity of the 3′ 10T FKN-S2 amphiphile may be due either to a spacer effect, where the spacer increases the distance between the aptamer and the tail, or due to an improvement in the affinity of the aptamer itself. To investigate the effect of the 10T spacer on the aptamer affinity, we measured the IC₅₀ values of the FKN-S2 aptamer with different nucleotide spacers (Table 3).
For GGGGTGGGTGGGGGGCACGTGTGGGGGCGGCCAGGGTGCTTTTTT (ssDNA) [3' 5T FKN-S2 Aptamer], the IC50 was 3.4 nM. Binder GGGGTGGGTGGGGGGCACGTGTGGGGGCGGCCAGGGTGCTTTTTTTTTTT (ssDNA) [3' 10T FKN-S2 Aptamer] has an IC50 of 3.6 nM. In the case of B1, the IC50 is reported as 2.7 nM. Work on GGGGTGGGTGGGGGGCACGTGTGGGGGCGGCCAGGGTGCTT (ssDNA) [3' 1T FKN-S2 Aptamer] yielded an IC50 of 9.2 nM. Work on TTTTTTTTTTGGGGTGGGTGGGGGGCACGTGTGGGGGCGGCCAGGGTGCT (ssDNA) [5' 10T FKN-S2 Aptamer] yielded an IC50 of 8.7 nM.

What follows are binders tested against T2, fractalkine (CX3CL1) (assay: filter; homologous competition; 25 pM FKN, PBS pH 7.4, poly dA:dT, BSA, room temp). Details: tags: C-terminal polyhistidine; chemokine domain + mucin-like stalk; R&D Systems 365-FR-025; label: 5' 32P; parallel G-quartet and B-form features by CD.
Protocol: The dissociation constant of FKN-S2 for fractalkine was determined using a radioactive homologous competition filter binding assay. Dilutions of unlabeled FKN-S2 aptamer were mixed with a constant concentration of ³²P ATP labeled FKN-S2. The dilutions were then incubated with 25 pM fractalkine for 1 hour at room temperature. […] Bound aptamer was collected by filtration through a nitrocellulose membrane and the dissociation constant determined by non-linear regression analysis.
All binding experiments occurred in binding buffer composed of PBS with 0.5 μg/mL poly dA:dT and 50 μg/mL bovine serum albumin (BSA), pH 7.4. Unlabeled full length FKN-S2 aptamer was diluted in binding buffer and a constant concentration of radiolabeled full length FKN-S2 aptamer added to each dilution. Full length fractalkine or an equivalent concentration of BSA was diluted in binding buffer to 50 pM. Aptamer and fractalkine/BSA was incubated for 1 hour at room temperature. Following incubation, samples were filtered through a nitrocellulose membrane using a bio-rad dot blot apparatus. Each well was washed 3 times with 200 μL of PBS to remove unbound aptamer. The membrane was dried and exposed to a storage phosphor screen overnight and imaged (Packard Cyclone). Binding was quantified using ImageJ and the Dot Blot Analyzer plug-in. The data was fit to the following equation
For GGGGTGGGTGGGGGGCACGTGTGGGGGCGGCCAGGGTGCT (ssDNA) [FKN-S2], the Kd was 3.4 nM.

— patent US20130123347, “FRACTALKINE BINDING POLYNUCLEOTIDES AND METHODS OF USE” (published 2013)
